Reference: the supplement of paper PMC9112550, “Optimization of the antimicrobial peptide Bac7 by deep mutational scanning” (BMC Biology, 2022)

Each sequence was assayed on Escherichia coli TOP10 (assay: shrunken log2 fold change of peptide-encoding DNA abundance (4.5 h post-induction vs induction); higher = less antimicrobial activity (less host growth inhibition)). Details: time post-induction: 4.5 h; library: site-saturation at positions 5, 18, 19, 20.
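Also: peptides expressed intracellularly from a pBAD plasmid library in pooled LB shake-flask culture, induced with 0.3% L-arabinose, DNA abundance read by NGS, three biological replicates, DESeq2 with apeglm shrinkage.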

Point of comparison: RRIRNRPPRLPRPRPRPGEPPRP, “shrunken log2 fold change” value 0.033. Against it:
- RRIRFRPPRLPRPRPRPYCTPRP — lower, -0.873
- RRIRARPPRLPRPRPRPCGHPRP — within 0.2 log units, 0.0628
- RRIRDRPPRLPRPRPRPWWYPRP — lower, -0.738
- RRIRKRPPRLPRPRPRPCPAPRP — within 0.2 log units, 0.17
- RRIRNRPPRLPRPRPRPISPPRP — within 0.2 log units, -0.13
- RRIRQRPPRLPRPRPRPLWQPRP — higher, 0.296
- RRIRERPPRLPRPRPRPTDHPRP — lower, -0.251
- RRIRYRPPRLPRPRPRPETMPRP — within 0.2 log units, -0.062
- RRIRSRPPRLPRPRPRPAKQPRP — within 0.2 log units, 0.134
- RRIRERPPRLPRPRPRPSHWPRP — lower, -0.292
- RRIRMRPPRLPRPRPRPAWPPRP — higher, 0.896
- RRIRTRPPRLPRPRPRPVSNPRP — lower, -0.442
- RRIRCRPPRLPRPRPRPRMCPRP — higher, 0.337
- RRIRLRPPRLPRPRPRPERAPRP — higher, 0.705
- RRIRPRPPRLPRPRPRPMCGPRP — lower, -0.252
- RRIRCRPPRLPRPRPRPGTGPRP — within 0.2 log units, 0.119
- RRIRYRPPRLPRPRPRPTYEPRP — higher, 4.06
- RRIRNRPPRLPRPRPRPWICPRP — lower, -0.192
- RRIRNRPPRLPRPRPRPQTAPRP — within 0.2 log units, -0.0947
- RRIRARPPRLPRPRPRPMVAPRP — higher, 0.676
- RRIRRRPPRLPRPRPRPHAPPRP — higher, 0.353
- RRIRMRPPRLPRPRPRPCTGPRP — within 0.2 log units, -0.0444
- RRIRCRPPRLPRPRPRPYDMPRP — lower, -0.726
- RRIRFRPPRLPRPRPRPAGHPRP — within 0.2 log units, 0.153
- RRIRMRPPRLPRPRPRPMSEPRP — within 0.2 log units, 0.102
- RRIRDRPPRLPRPRPRPHPYPRP — within 0.2 log units, 0.0304
- RRIRCRPPRLPRPRPRPAMLPRP — within 0.2 log units, 0.0443
- RRIRTRPPRLPRPRPRPITGPRP — within 0.2 log units, 0.00283
- RRIRIRPPRLPRPRPRPMVPPRP — within 0.2 log units, 0.0231
- RRIRIRPPRLPRPRPRPPKHPRP — within 0.2 log units, 0.00437
- RRIRLRPPRLPRPRPRPVTDPRP — lower, -0.325
- RRIRSRPPRLPRPRPRPDKKPRP — within 0.2 log units, -0.158
- RRIRSRPPRLPRPRPRPIFLPRP — lower, -0.335
- RRIRNRPPRLPRPRPRPFMYPRP — lower, -0.247
- RRIRARPPRLPRPRPRPYMYPRP — lower, -0.635
- RRIRKRPPRLPRPRPRPENDPRP — within 0.2 log units, -0.0386
- RRIRQRPPRLPRPRPRPDIQPRP — within 0.2 log units, 0.00127
- RRIRCRPPRLPRPRPRPRKEPRP — higher, 0.239
- RRIRQRPPRLPRPRPRPVAMPRP — within 0.2 log units, 0.0794
- RRIRRRPPRLPRPRPRPRDFPRP — higher, 0.298
- RRIRFRPPRLPRPRPRPFFSPRP — lower, -0.59
- RRIRSRPPRLPRPRPRPKFMPRP — within 0.2 log units, -0.0581
- RRIRKRPPRLPRPRPRPVQDPRP — higher, 0.295
- RRIRLRPPRLPRPRPRPMTRPRP — higher, 0.314
- RRIRNRPPRLPRPRPRPEISPRP — within 0.2 log units, -0.126
- RRIRPRPPRLPRPRPRPVTGPRP — within 0.2 log units, -0.0902
- RRIRGRPPRLPRPRPRPIDTPRP — higher, 0.306
- RRIRPRPPRLPRPRPRPCALPRP — within 0.2 log units, -0.0401
- RRIRQRPPRLPRPRPRPVSKPRP — within 0.2 log units, -0.014
- RRIRLRPPRLPRPRPRPKAPPRP — within 0.2 log units, 0.00522
- RRIRERPPRLPRPRPRPEYWPRP — within 0.2 log units, 0.126
- RRIRKRPPRLPRPRPRPPCNPRP — within 0.2 log units, 0.189
- RRIRFRPPRLPRPRPRPETCPRP — within 0.2 log units, -0.0911
- RRIRNRPPRLPRPRPRPFKKPRP — lower, -0.263
- RRIRIRPPRLPRPRPRPFFGPRP — within 0.2 log units, -0.00653
- RRIRLRPPRLPRPRPRPSHHPRP — lower, -0.319
- RRIRGRPPRLPRPRPRPKYYPRP — within 0.2 log units, 0.0864
- RRIRFRPPRLPRPRPRPFQFPRP — lower, -0.253
- RRIRHRPPRLPRPRPRPMFEPRP — lower, -0.239
- RRIRDRPPRLPRPRPRPVMGPRP — within 0.2 log units, 0.0247
- RRIRTRPPRLPRPRPRPWTEPRP — within 0.2 log units, 0.00497
- RRIRERPPRLPRPRPRPKPSPRP — within 0.2 log units, 0.229
- RRIRKRPPRLPRPRPRPHECPRP — higher, 0.286
- RRIRVRPPRLPRPRPRPIETPRP — within 0.2 log units, 0.0184
- RRIRLRPPRLPRPRPRPVNWPRP — within 0.2 log units, 0.0772
- RRIRSRPPRLPRPRPRPAKAPRP — within 0.2 log units, 0.000841
- RRIRYRPPRLPRPRPRPPANPRP — within 0.2 log units, 0.169
- RRIRPRPPRLPRPRPRPLRDPRP — higher, 0.522
- RRIRMRPPRLPRPRPRPPTVPRP — higher, 0.593
- RRIRQRPPRLPRPRPRPNGTPRP — higher, 1.1
- RRIRTRPPRLPRPRPRPHRQPRP — lower, -0.256
- RRIRMRPPRLPRPRPRPMSNPRP — within 0.2 log units, 0.0851
- RRIRCRPPRLPRPRPRPGPPPRP — higher, 0.942
- RRIRWRPPRLPRPRPRPQEFPRP — within 0.2 log units, 0.00161
